The NTF2 design screens of Basanta et al. (2020)

test: protease stability score; higher = more stable; yeast display proteolysis, trypsin and chymotrypsin;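 further: relative to predicted unfolded state with 0 unfolded-like and 1 meaning tenfold more protease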

Compared with “SENEKILHDLSKELFDIYHTGNEERWSEMADPHVKIDVNGQEYHGREEVEEELEHWRRRFKNARYEIHKIHVFDGRLLIEGHINIDGKKRQIHFRIHVVNGKIKEMRIEIR”, “SEDEKERDMIAELFVRSLVTGDEELIKDLIDPNVKLDIGDKSRHGRENFTRQILHFGVDHVDVTEMHVQGEKVNLRGNWNINGVDLDVINYVTKVNGKWLLTRVEIK” is lower in protease stability score: 1.82 for the first, 1.14 for the second.

Compared with “HEEEKHMEELSRHFLHNEHTGDEKMLKHLADPHAKVFINGRELHGWDVLVEWLNKFKNIKVELHSERVINGRLFLHVNYHVNGRTTELHLILYIVDGKIHTLILEVR”, “DESERDMETFVRITMDELVTGNEESIEEMLDPNVRLEVNGRQFHGREDATRIISEWIKILGINHRRLEEIRFVDGRAEVIVEIRVGDKRSELILISLKVNGQWRMERFEIRNE” is higher in protease stability score: 0.756 for the first, 2.09 for the second.

Compared with “HEEEKQIHDIIEIIIRLLVTGNEEIHKRLADPHVRVEVGDKHFHGREEVTKFLMRIDHVQHVDHRIHRMDIIDGRADVHGDLLIDGDFDGRRTRTDIRVRWRIIKIDGRWILHSYSVL”, “DDEKREMVEMLKIFIHNFLTGDWRTMEKLLDPDARFIINGQTFHGREWVRHSLHVFLHQFEHIHHIVIHDIDLQGDKVNIDGKLDGTVNGKRRLLDSHWHLRVVNGRVKEIEIHIH” is higher in protease stability score: 1.24 for the first, 2.12 for the second.

First: RDEDRDRHHAWREFERIMLTGDWRESEKLIDPHVRLDIDGRRHHGMEIYSTLLYHISTRADHIRVILDDIKVQGEKVEVDTIIDIHVGDKHIHIKTHIVASKINGRWFLHSLKID
Second: SEMEETLKKAFHNLLEHIKTGDEQLLKEFLDPNTKVEVDGVELIGMEKFIELMREIEKRVDVIRSLELEHWEVVGNKIRMEVRLNIEINGKDTFTRTHLIALKVNGRWILHSVRIG
The protease stability score of the first is lower: 0.929 for the first, 1.75 for the second.

First: SYHEKEALDLYRMTIHNYLTGDWKEWHRLFDPHVRIRIGDKELHGMENFAKWEEDLEKDLGVDHVEIRLRDMEVQGDKFTSDGELRLHIDGRTIRHKVEFHLEVINGRIKSHRINIH
Second: DEHTDMTRRLAELFRHLIETGNWKELTKLADPNMRLEVGDKEMHGREKLAELWRRIKNVRISIRRVEVQGEKVHLDLELDVDGQRQKFSEHIDIVDGVMRDVNVQWE
The protease stability score of the first is lower: 1.04 for the first, 2.12 for the second.

Going from “DEDEEQLRKWTRLTWRDMITGNEDSLHRLFDPHTRLDIDGVDVHGMESVSRKISDEMKRFDHVDFHLHDMRIFNGRAHIDGRLRFHINGVHLERREVIVILKINGQWFNEQISYK” to “DEEENMAEWAIRLMKHVIETGNFEEFLRLFDPNTRMHVNGVESHGRERSSKVLKEWLEIMGVDHLKVRDEKFSVQGNKLHIHLDTRTEQGDKEIETHIEVISYKIDGRWRQKEIRFEVR”, the protease stability score rises from 0.196 to 1.69.

Going from “HEEEHEMRKLAHILFEVLLTGNWKLLAELADPDVLTHINGRDMHGMESELETWKHLRIRDMKIRHVDVQGDKVHLDTELEGEINGRRFQTRTHIHYLLVDGRTKHVKVQID” to “SEDEEYLKRALELWDELVKTGDEHRSRRLFDPNARLEIGDKEYHGREEVTHMLRWLIKEIRVHSVTLKDFRSQGDKLIADTRQNREYNGKSDNVSLIMIIIKVDGRWLIESIKIE”, the protease stability score falls from 1.51 to 1.41.

Compared with “SEEDKWAEIMARLMSYLNHTGDEENFDRLADPDVRMDINGREVHGRETFNRYLRHIRIRFHDLISRDSTEVNGVLIIHGESDITIEYDGVRLRDHPKSVFYVLKINGRWRIKSISFH”, “SHLEEETMHIAEIFIKNELTGDERKLVELLDPNTRLHIDIGDKHIDVHGMENITKLLREIWKRLGADHVHIKDVRVQGDKADIITRIDVNGREIHSRIHILVINGKIESLKLHVE” is lower in protease stability score: 1.41 for the first, 1.33 for the second.

Going from “DETDEHAHKMFEIIIHYLLTGDWKELIKLADPHVKLEFDINGKTIDLVGRELFTEFFLRFKNVRSEIDDVRHIGDKNHARVRVNWDGRDTEVQIDIVIIDGVVHRVRLIFK” to “SEEERYHDKALKILKESVDTGDPHLLSRYMDPNDRLDINGREIHGMEILLKELLHIMERADHIRIELNDIKMQGDFLELDGILIIHQGEYTLQLRVKLVSLKVDGRWLHHSIEVK”, the protease stability score falls from 2.59 to 0.171.

First: DHEEEKAVEIARLLLEAELTGDWKTFSHLADPHTRWIERIDGREDSRHGMEEVVRIIIERLKEIRMEVRIRRKRVVGDKVELDGELIMRINGVEIRVEVRIIIIIVGDKVKFIEITIH
Second: NEEERENIRIFMMWIEDLVTGNWDRIEHLADPHYRQDVNGRHIHGRDTFAQMVREEMHRIDHHEIKLRHVSVQGNKLRAHVEINLIIGEKRIEKEVIVDLNVINGVLHEVKIVVR
The protease stability score of the first is lower: 0.83 for the first, 1.04 for the second.

Compared with “SEEDEETEHITRLIFRAMVTGDWKELLDNLDPHTRVDINGRDQHGWEVMREWVERIKNVQLRIRRISVQGDKTRLDTEFRQGDKSVHVEVRITIVDGVVQHIEFKDR”, “DESRREVRHFIDLWIELVETGDEDTIRHLADPHVKIVIGEKEDWGMEVFFRDFRRLGVDHMEIIVHRVDVIGNKAHVDFELRVHVDGQEFRFRLRLIVHKINGRWILRTIEIH” is higher in protease stability score: 1.6 for the first, 1.68 for the second.

Going from “DEDLQFLKNFKEEWIKNLRTGDEDAVQKLADPNVRIDIDGKELHGREVMLEMLHQETNELRLKDVKDKHMTVQGDKIHWDGILIITINGKEIRRRVHIFVQKVDGRWVIESEIHR” to “TEEEEILHEELRRHKEALETGDEDRLRHLIDPRARMDVNGREFHGMEHIVHFLVEFLLKFKNVRFEIKDFTKIGEYIYVDIHIIVDGRRHHMTVVALKVDGRWRNRHLHID”, the protease stability score rises from 0.942 to 1.18.

Compared with “DEEERDLQQFIEEWWKTLVTGDEHLIERYLDPHVRMDWNGRELHGREAIADTIKKYVDEIRLEVRINHVRFQGDKVDIDGEIVERQGDKTRHLNFELEIIVVNGRAQEIRVRLR”, “SEDEESMRRAMEIWEKTMETGDERIYEELVDPDVKIEINGKNFIGREDAVKVFHKLGIKVSEIREVRIIGDKMILKGEDNINGRNVDSRLITRKINGKWIIESFSIV” is lower in protease stability score: 1.48 for the first, 1.22 for the second.

First: SEMDENIHEALKEEMHAWVTGDFDKIEHLLDPNTRVEQGEFIYHGRFFVEFVRRRVDHVFWHHVEIRHIENVDGRMIIDGIVDFEETAENHRHRHTIRTIIYLEKIDGKWYIRSLEVK
Second: SEEEEIARELSEEVYRHWHTGDFRMLERYFDPHVRIIYDGRDYHGREIASTVLRETNKEWRTESMEVKDVKFINGKLHVDISSDTLYNGKRVSTSIKIVSVKVDGQWVIHQMKYV
The protease stability score of the first is lower: 0.874 for the first, 1.1 for the second.

First: DEDERNVRDVAYLLLHALWTGDEDMLRHLIDPDVRFHIDGRHHHGWLRVLEMFREIRIHDFRMHDEKFRIIGDKAEARFDGESIVVIDGKEVDRRVEERYIIVKVNGQWRLKMIEVHLR
Second: DEDEKLSKFAIDNFIQLMLTGDEDSLLHLADPNARLHFNGVEIHGMEEVQERLMRERKERGVRIHSIHIEHIDIQGDWIIVHMHITQRVNGKEESIERILILLKINGRWHLHQIRLH
The protease stability score of the first is higher: 1.55 for the first, 1.28 for the second.

First: DEDEENARKVSKKYKEIVLTGDEHALERLIDPNVRIDFNGKEFHGREDLSRLFHERFKRADHIEFDVKHINVQGNKVDLDVREIEIVGDKTHVHNVILHVLKIDGRWLIKEIRVH
Second: DNKEKLMNKAFEWILELIITGDEDTLHELADPNARNHYGEFHHVGREETTRFLVEFNRRLGVDHVRFERMRVIDGKVHLHIEINVDGRRFESDLIFFKVDGRWKLNFVHFRHV
The protease stability score of the first is lower: 1.26 for the first, 1.27 for the second.

Going from “TEEEEDARRATEELVRIINTGDEDRWERLMDPDVRVEVGDKEIHGRETLSEIFKFKHKHLRIKMDIRDMRLIDGKVWVDIVIDVEFDGRRHIHKTTIVLIKVNGRWRLDEVRLH” to “DEEDHESHEMMRQHFEAFVTGDFESFTRYADPHVRLIVGDKHFHGRDLIVHVFLRLWHELGVKVSRIKEIHSVGDKMHLDGELHVGDKRFRLLVEARKFDGRWFNKRVELVIL”, the protease stability score falls from 1.77 to 1.48.

Going from “SEDEREFEEFVRFFFKMMVTGDEDDLIRLLDPHAKFEINGKILHGWRHLLEEIREMGIKHWKIRDIKVQGEKVENELELEVGEKRFHIRLIATKVNGKWHVKEFSIHEI” to “DEEEHEAKRADEVYQHVMETGDERLLNEYFDPHYRLEQGDYELVGREEASRFLIEWMKHWRTEYRLDNYHVIGNKIRLEGELHIRYGNFTRSHRIVTYVLKVDGQWRIKKTEIR”, the protease stability score falls from 2.29 to 1.64.
